B1: HDV Ribozyme (parent)
chain: GGCCGGCAUGGUCCCAGCCUCCUCGCUGGCGCCGGCUGGGCAACAUUCCGAGGGGACCGUCCCCUCGGUAAUGGCGAAUGGGACCCA

Variants of: B1
Test: self-cleavage, relative activity (ratio to wild type); higher = more cleavage; co-transcriptional

Variant	self-cleavage
GGCCGGCAUGGUCCCAGCCUCCUCGCUGGCGCCGGCUGGGCAACAUUCCGAGGGCACCGUCCCCUCGGUAAUGGCAAAUGGGACCCA [G55C G76A]	1.18
GGCCGGCAUGGUCCCAGCCUCCUCGCUGGCGCCGGCUGGGCAACAUUCCGAGGGCACCGUCCCCUCGGUAAUGGCUAAUGGGACCCA [G55C G76U]	1.06
GGCCGGCAUGGUCCCAGCCUCCUCGCUGGCGCCGGCUGGGCAACAUUCCGAGGGUACCGUCCACUCGGUAAUGGCGAAUGGGACCCA [G55U C63A]	0.783
GGCCGGCAUGGUCCCAGCCUCCUCGCUGGCGCCGGCUGGGCAACAUUCCGAGGGCACCGUCCCCUCGGAAAUGGCGAAUGGGACCCA [G55C U69A]	0.973
GGCCGGCAUGGUCCCAGCCUCCUCGCUGGCGCCGGCUGGGCAACAUUCCGAGGGCACCGUCCCCCCGGUAAUGGCGAAUGGGACCCA [G55C U65C]	0.867
GGCCGGCAUGGUCCCAGCCUCCUCGCUGGCGCCGGCUGGGCAACAUUCCGAGGGCACCGUCCCCACGGUAAUGGCGAAUGGGACCCA [G55C U65A]	0.88
GGCCGGCAUGGUCCCAGCCUCCUCGCUGGCGCCGGCUGGGCAACAUUCCGAGGGCACCGUCCCCUCGGUAAUGGCGAACGGGACCCA [G55C U79C]	0.513
GGCCGGCAUGGUCCCAGCCUCCUCGCUGGCGCCGGCUGGGCAACAUUCCGAGGGUACCGUCCCCUCGGUCAUGGCGAAUGGGACCCA [G55U A70C]	0.997
GGCCGGCAUGGUCCCAGCCUCCUCGCUGGCGCCGGCUGGGCAACAUUCCGAGGGUACCGUCCCCUCGGUGAUGGCGAAUGGGACCCA [G55U A70G]	0.867
GGCCGGCAUGGUCCCAGCCUCCUCGCUGGCGCCGGCUGGGCAACAUUCCGAGGGGCCCGUCCCCUCGCUAAUGGCGAAUGGGACCCA [A56C G68C]	0.486
GGCCGGCAUGGUCCCAGCCUCCUCGCUGGCGCCGGCUGGGCAACAUUCCGAGGGGCCCCUCCCCUCGGUAAUGGCGAAUGGGACCCA [A56C G59C]	1.05
GGCCGGCAUGGUCCCAGCCUCCUCGCUGGCGCCGGCUGGGCAACAUUCCGAGGGUACCGUCCCCUCGGUAAUGGCGAAUGCGACCCA [G55U G81C]	0.106
GGCCGGCAUGGUCCCAGCCUCCUCGCUGGCGCCGGCUGGGCAACAUUCCGAGGGUACCGUCCCCUCGGUAAUGGCGAAUGUGACCCA [G55U G81U]	0.272
GGCCGGCAUGGUCCCAGCCUCCUCGCUGGCGCCGGCUGGGCAACAUUCCGAGGGUACCGUCCCCUCGGUAAUGGCGCAUGGGACCCA [G55U A77C]	0.353
GGCCGGCAUGGUCCCAGCCUCCUCGCUGGCGCCGGCUGGGCAACAUUCCGAGGGCACCGACCCCUCGGUAAUGGCGAAUGGGACCCA [G55C U60A]	1.05
GGCCGGCAUGGUCCCAGCCUCCUCGCUGGCGCCGGCUGGGCAACAUUCCGAGGGCACCGGCCCCUCGGUAAUGGCGAAUGGGACCCA [G55C U60G]	0.898

Variant	self-cleavage
GGCCGGCAUGGUCCCAGCCUCCUCGCUGGCGCCGGCUGGGCAACAUUCCGAGGGUCCCGUCCCCUCGGUAAUGGCGAAUGGGACCCA [G55U A56C]	0.944
GGCCGGCAUGGUCCCAGCCUCCUCGCUGGCGCCGGCUGGGCAACAUUCCGAGGGGCCCGUCCCCUCGGUAAUGGCGAAUGGGACCGA [A56C C86G]	0.804
GGCCGGCAUGGUCCCAGCCUCCUCGCUGGCGCCGGCUGGGCAACAUUCCGAGGGGCCCGUCCCCUCGGUAAUGGCGAAUGGGACCAA [A56C C86A]	0.87
GGCCGGCAUGGUCCCAGCCUCCUCGCUGGCGCCGGCUGGGCAACAUUCCGAGGGUACCGUCCCCUCGGUAAUAGCGAAUGGGACCCA [G55U G73A]	0.533
GGCCGGCAUGGUCCCAGCCUCCUCGCUGGCGCCGGCUGGGCAACAUUCCGAGGGCACCGUCCCCUCGGUAAUUGCGAAUGGGACCCA [G55C G73U]	0.277
GGCCGGCAUGGUCCCAGCCUCCUCGCUGGCGCCGGCUGGGCAACAUUCCGAGGGUACCCUCCCCUCGGUAAUGGCGAAUGGGACCCA [G55U G59C]	1.02
GGCCGGCAUGGUCCCAGCCUCCUCGCUGGCGCCGGCUGGGCAACAUUCCGAGGGUACCGUCCCCCCGGUAAUGGCGAAUGGGACCCA [G55U U65C]	0.73
GGCCGGCAUGGUCCCAGCCUCCUCGCUGGCGCCGGCUGGGCAACAUUCCGAGGGUACCGUCCCAUCGGUAAUGGCGAAUGGGACCCA [G55U C64A]	0.94
GGCCGGCAUGGUCCCAGCCUCCUCGCUGGCGCCGGCUGGGCAACAUUCCGAGGGUACCGUCCCCUCGGUAAUGGCGAAUGGAACCCA [G55U G82A]	0.467
GGCCGGCAUGGUCCCAGCCUCCUCGCUGGCGCCGGCUGGGCAACAUUCCGAGGGUACCGUACCCUCGGUAAUGGCGAAUGGGACCCA [G55U C61A]	1.09
GGCCGGCAUGGUCCCAGCCUCCUCGCUGGCGCCGGCUGGGCAACAUUCCGAGGGGCCCGUCCCCUCGGUAAUGGCGAAUGGGACACA [A56C C85A]	0.806
GGCCGGCAUGGUCCCAGCCUCCUCGCUGGCGCCGGCUGGGCAACAUUCCGAGGGGCCCGUCCCCUCGGUAAUGGCGAAUGGGACUCA [A56C C85U]	1.01
GGCCGGCAUGGUCCCAGCCUCCUCGCUGGCGCCGGCUGGGCAACAUUCCGAGGGGCCCGUCCCCUCGGUAAUGGCGAAUGGGACGCA [A56C C85G]	1.04
GGCCGGCAUGGUCCCAGCCUCCUCGCUGGCGCCGGCUGGGCAACAUUCCGAGGGGCCCGUCCCCUCGGUAAUGGCGAAUGGGAGCCA [A56C C84G]	0.755
GGCCGGCAUGGUCCCAGCCUCCUCGCUGGCGCCGGCUGGGCAACAUUCCGAGGGGCCCGUCCCCUCGGUAAUGGCGAAUGGGGCCCA [A56C A83G]	1.01
GGCCGGCAUGGUCCCAGCCUCCUCGCUGGCGCCGGCUGGGCAACAUUCCGAGGGUACCGUCCCCUCAGUAAUGGCGAAUGGGACCCA [G55U G67A]	0.881

— the RNAGym collection of RNA variant scans (doi:10.7554/elife.80360)
